Experimental data from patent US10087225B2, “Formulation of MK2 inhibitor peptides” (MOERAE MATRIX, INC., priority 2015, dated 2018).

Legend:
Experiment in all cases: Kinase Profiling Assay
Assay type in all cases: biochemical
Conditions in all cases: for % activity: 100 μM
ARK5(h) = biological target: T1, ARK5(h) (Homo sapiens, UniProt O60285)
T1 sequence (O60285 1-661): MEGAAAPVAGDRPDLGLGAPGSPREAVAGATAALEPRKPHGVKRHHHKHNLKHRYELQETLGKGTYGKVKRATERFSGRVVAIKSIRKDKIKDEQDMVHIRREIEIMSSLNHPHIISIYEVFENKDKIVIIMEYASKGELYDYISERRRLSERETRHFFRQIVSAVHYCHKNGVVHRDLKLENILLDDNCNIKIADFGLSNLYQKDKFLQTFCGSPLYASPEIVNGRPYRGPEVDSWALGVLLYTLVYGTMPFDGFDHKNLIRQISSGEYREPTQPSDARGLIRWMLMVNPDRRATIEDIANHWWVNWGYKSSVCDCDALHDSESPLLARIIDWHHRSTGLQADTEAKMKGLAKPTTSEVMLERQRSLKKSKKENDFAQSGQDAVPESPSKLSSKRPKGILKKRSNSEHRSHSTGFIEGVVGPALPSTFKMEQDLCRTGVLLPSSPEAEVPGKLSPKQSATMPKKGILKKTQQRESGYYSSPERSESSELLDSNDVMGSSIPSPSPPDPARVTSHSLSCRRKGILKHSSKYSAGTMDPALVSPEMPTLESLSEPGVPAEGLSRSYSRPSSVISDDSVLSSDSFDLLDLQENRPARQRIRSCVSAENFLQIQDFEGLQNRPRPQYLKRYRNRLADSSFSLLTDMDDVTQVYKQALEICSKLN

ErbB4(h) = ErbB4(h) (Homo sapiens, UniProt Q15303)
SRPK1(h) = SRPK1(h) (Homo sapiens, UniProt Q96SB4)
GRK6(h) = GRK6(h) (Homo sapiens, UniProt P43250)
PTK5(h) = PTK5(h) (Homo sapiens, UniProt P42685)
EphB4(h) = biological target: T2, EphB4(h) (Homo sapiens, UniProt P54760)
T2 sequence (P54760 16-987): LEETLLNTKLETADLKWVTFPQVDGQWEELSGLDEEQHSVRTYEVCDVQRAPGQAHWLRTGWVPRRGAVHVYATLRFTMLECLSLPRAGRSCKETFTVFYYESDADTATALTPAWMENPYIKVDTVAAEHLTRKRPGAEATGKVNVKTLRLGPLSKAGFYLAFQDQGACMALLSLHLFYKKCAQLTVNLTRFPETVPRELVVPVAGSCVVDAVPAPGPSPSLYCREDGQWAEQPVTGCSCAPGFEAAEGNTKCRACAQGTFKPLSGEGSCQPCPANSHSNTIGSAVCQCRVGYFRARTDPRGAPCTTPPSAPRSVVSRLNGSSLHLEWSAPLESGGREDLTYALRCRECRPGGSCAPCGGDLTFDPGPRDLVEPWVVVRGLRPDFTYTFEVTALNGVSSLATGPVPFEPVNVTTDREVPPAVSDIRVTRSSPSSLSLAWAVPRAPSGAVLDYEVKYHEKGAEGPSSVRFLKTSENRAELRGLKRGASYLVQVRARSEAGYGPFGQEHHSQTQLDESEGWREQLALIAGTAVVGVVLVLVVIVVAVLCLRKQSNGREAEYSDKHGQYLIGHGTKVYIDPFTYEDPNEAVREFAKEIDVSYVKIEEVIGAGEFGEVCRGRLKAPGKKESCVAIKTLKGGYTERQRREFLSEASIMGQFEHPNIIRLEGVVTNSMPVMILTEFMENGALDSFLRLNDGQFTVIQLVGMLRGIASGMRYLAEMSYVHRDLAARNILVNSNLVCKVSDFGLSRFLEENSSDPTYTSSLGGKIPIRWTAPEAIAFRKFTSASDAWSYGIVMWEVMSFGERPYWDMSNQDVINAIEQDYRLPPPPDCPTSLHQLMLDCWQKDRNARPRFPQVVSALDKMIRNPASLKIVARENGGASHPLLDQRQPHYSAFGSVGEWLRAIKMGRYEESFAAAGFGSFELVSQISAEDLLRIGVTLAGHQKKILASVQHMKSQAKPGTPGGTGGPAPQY

LOK(h) = LOK(h) (Homo sapiens, UniProt O94804)
BrSK1(h) = biological target: T3, BrSK1(h) (Homo sapiens, UniProt Q8TDC3)
T3 sequence (Q8TDC3 1-778): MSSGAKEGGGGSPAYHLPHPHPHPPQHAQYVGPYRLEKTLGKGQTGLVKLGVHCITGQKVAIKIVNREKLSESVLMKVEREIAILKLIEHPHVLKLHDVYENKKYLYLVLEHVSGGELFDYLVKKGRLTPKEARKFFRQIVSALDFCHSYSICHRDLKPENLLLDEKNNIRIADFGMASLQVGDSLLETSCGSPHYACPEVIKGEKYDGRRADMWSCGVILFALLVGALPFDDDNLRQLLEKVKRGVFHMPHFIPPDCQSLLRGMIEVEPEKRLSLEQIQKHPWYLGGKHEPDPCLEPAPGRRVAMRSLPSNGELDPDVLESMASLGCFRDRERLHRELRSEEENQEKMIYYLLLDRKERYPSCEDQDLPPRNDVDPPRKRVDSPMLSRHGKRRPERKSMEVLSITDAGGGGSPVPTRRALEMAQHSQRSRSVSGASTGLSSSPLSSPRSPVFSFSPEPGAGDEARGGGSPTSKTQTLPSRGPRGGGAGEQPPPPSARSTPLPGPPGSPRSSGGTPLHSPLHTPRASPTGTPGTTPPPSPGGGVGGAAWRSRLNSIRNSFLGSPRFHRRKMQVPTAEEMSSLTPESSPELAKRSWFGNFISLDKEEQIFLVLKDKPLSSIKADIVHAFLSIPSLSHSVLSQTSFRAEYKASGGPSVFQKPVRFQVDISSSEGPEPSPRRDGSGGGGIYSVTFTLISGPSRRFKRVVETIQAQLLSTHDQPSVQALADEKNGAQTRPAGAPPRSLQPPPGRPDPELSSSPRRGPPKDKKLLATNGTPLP

Chain of PTK5(h) (P42685 whole entry): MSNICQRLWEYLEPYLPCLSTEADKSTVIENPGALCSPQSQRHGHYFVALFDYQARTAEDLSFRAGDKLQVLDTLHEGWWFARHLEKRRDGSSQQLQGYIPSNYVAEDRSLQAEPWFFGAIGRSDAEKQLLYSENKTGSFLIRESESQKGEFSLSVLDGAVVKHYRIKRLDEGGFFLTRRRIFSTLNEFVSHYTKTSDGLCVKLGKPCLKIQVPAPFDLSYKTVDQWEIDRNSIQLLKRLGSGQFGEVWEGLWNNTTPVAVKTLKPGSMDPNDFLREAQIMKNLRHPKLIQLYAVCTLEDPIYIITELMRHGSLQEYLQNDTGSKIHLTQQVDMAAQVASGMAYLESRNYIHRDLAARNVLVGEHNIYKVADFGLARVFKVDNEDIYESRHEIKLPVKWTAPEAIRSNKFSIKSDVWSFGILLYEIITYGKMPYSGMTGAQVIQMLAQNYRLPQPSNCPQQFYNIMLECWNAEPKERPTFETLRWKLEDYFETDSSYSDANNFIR
Chain of GRK6(h) (P43250 whole entry): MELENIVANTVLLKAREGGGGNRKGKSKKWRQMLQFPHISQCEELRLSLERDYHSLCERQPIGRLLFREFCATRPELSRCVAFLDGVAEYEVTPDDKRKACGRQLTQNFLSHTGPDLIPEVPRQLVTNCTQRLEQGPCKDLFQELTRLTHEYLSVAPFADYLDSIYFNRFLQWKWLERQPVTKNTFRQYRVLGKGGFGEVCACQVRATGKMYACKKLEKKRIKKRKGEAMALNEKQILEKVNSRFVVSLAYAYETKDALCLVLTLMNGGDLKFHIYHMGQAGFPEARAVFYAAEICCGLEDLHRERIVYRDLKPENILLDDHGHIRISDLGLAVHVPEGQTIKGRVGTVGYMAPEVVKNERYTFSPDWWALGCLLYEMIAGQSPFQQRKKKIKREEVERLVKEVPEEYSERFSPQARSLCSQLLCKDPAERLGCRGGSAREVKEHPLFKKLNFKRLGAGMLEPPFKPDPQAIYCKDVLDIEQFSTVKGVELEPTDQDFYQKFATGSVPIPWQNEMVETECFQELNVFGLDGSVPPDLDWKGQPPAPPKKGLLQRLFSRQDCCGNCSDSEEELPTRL
Chain of ErbB4(h) (Q15303 26-1308): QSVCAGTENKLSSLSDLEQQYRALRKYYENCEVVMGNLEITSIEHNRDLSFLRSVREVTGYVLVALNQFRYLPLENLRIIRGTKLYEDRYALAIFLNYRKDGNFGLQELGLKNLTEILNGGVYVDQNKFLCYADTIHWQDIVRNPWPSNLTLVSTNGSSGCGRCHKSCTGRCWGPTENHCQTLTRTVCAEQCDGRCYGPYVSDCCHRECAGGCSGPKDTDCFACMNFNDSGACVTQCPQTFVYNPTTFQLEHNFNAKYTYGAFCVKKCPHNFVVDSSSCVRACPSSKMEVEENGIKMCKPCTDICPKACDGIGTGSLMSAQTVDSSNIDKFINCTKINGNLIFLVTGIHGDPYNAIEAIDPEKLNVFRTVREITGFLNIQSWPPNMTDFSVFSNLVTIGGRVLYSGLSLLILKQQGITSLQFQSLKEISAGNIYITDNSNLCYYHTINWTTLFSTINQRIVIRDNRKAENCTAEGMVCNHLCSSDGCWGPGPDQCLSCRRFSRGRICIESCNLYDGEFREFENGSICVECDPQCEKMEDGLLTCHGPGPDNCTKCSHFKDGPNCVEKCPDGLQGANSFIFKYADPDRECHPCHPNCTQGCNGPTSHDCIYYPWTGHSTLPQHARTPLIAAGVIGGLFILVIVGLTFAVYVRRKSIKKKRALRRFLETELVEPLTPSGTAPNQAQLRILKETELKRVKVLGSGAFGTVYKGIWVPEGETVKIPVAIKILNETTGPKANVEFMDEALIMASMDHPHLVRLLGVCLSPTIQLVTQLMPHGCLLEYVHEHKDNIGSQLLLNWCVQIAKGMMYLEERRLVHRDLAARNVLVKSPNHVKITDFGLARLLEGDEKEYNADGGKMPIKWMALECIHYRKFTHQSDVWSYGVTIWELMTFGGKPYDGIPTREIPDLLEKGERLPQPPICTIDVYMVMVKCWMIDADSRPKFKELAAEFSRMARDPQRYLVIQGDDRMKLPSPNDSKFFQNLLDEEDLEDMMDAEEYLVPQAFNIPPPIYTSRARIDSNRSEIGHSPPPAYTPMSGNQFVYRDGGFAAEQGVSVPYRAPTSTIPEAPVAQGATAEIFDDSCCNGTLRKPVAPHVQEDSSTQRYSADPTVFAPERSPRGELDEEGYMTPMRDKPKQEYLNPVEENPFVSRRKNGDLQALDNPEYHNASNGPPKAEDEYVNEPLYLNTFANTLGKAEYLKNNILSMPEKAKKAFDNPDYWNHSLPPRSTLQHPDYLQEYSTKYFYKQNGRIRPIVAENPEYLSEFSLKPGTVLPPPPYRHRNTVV
Chain of LOK(h) (O94804 whole entry): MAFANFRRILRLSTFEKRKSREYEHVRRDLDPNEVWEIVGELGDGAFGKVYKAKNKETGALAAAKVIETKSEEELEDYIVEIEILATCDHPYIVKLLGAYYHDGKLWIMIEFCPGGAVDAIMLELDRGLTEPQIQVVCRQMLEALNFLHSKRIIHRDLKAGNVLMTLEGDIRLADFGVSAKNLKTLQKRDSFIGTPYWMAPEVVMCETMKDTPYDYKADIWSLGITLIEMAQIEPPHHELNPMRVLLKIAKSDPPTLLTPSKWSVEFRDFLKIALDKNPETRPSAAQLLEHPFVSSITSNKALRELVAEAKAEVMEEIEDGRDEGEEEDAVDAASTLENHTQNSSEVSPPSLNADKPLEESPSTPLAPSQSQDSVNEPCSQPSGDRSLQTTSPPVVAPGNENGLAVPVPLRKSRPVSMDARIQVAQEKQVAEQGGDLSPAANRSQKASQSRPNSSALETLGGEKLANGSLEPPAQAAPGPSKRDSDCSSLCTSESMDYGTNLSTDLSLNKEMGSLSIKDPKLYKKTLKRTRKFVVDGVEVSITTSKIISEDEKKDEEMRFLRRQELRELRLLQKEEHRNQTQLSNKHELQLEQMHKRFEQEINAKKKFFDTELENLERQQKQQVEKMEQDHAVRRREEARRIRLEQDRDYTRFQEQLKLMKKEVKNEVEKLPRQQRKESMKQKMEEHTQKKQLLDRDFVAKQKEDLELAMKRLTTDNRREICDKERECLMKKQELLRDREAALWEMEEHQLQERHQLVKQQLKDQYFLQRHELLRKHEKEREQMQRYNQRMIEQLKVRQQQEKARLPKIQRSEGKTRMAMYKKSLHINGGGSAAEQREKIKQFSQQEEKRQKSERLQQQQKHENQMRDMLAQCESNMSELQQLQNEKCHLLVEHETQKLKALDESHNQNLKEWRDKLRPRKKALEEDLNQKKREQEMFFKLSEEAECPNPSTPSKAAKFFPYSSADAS
Chain of SRPK1(h) (Q96SB4 whole entry): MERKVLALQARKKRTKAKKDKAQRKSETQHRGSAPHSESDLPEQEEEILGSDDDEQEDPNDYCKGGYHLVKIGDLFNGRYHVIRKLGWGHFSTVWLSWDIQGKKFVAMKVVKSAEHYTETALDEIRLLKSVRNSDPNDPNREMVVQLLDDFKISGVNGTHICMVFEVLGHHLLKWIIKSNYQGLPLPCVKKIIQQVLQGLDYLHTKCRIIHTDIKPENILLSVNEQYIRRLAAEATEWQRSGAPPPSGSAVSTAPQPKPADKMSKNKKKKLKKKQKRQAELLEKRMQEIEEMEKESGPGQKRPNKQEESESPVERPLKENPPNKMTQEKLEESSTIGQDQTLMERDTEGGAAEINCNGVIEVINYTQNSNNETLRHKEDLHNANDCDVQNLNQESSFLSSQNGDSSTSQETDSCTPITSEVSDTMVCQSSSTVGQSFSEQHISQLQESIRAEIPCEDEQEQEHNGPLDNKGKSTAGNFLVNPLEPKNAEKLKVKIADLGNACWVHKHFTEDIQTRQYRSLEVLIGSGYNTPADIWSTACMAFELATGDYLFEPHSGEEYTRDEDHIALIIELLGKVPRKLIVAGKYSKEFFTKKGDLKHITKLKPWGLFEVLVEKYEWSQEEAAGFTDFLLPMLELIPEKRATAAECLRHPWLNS

Substance | activity at 100 µM (ARK5(h)) [%] | activity at 100 µM (ErbB4(h)) [%] | activity at 100 µM (SRPK1(h)) [%] | activity at 100 µM (GRK6(h)) [%] | activity at 100 µM (PTK5(h)) [%] | activity at 100 µM (EphB4(h)) [%] | activity at 100 µM (LOK(h)) [%] | activity at 100 µM (BrSK1(h)) [%] | % activity (ARK5(h)) [%] | % activity (ErbB4(h)) [%] | % activity (SRPK1(h)) [%] | % activity (GRK6(h)) [%] | % activity (PTK5(h)) [%] | % activity (EphB4(h)) [%] | % activity (LOK(h)) [%] | % activity (BrSK1(h)) [%]
H-YARAAARQARAKALARQLGVAA-OH [MMI-0100] | 108 | 73 | 69 | 131 | 135 | 62 | 37 | 100 |  |  |  |  |  |  |  | 
HRRIKAWLKKIKALARQLGVAA (Mammalian) [MMI-0500] |  |  |  |  |  |  |  |  | 20 | 2 | 80 | 174 | 96 | 38 | 7 | 72
YARAAARQARAKALNRQLGVA (Mammalian) [MMI-0200] |  |  |  |  |  |  |  |  | 93 | 82 | 93 | 132 | 108 | 131 | 67 | 93
